# Patent publication US12679878B2, “CRF2 receptor agonists and their use in therapy” (SANOFI, priority 2020, dated 2026)
# Starred links: 1 amine or outer side, 2 acyl side, 3 side chain; linkers in the order of their positions; H or OH if unused. Non-standard residues stand in square brackets, D forms with d. Groups on a side chain read outwards from the residue. No end group written: not given here. *: point of attachment. C18 diacid = O=C(O)CCCCCCCCCCCCCCCCC(=O)*; γGlu = O=C(O)[C@H](CCC(=O)[*:2])N[*:1]; AEEA = NCCOCCOCC(=O)O; Aib = CC(C)(N)C(=O)O
# Target: human corticotropin-releasing factor 2α (CRF2 α receptor) (human), Q13324
# Sequence (Q13324 20-411): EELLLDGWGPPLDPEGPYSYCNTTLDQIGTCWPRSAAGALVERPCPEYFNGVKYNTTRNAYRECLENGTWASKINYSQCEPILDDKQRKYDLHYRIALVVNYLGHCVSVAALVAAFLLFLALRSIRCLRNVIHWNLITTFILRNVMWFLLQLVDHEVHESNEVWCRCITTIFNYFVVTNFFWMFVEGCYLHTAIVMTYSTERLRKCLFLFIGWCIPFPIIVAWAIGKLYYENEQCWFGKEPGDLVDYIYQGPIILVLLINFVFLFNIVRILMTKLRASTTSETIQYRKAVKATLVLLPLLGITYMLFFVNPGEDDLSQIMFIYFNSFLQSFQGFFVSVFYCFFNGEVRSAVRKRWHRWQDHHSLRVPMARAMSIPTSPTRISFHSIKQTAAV
# Test: cell-based or functional assay
Binder,"EC50 [nM], 0% HSA","EC50 [nM], 0.1% HSA"
IVLSLDVPIKLK([AEEA-AEEA-γGlu-C18 diacid])QILLEQERQK[Aib]QREQAETNKQILERV-NH2 (N-terminus assumed; SMILES CC[C@H](C)[C@H](N)C(=O)N[C@H](C(=O)N[C@@H](CC(C)C)C(=O)N[C@@H](CO)C(=O)N[C@@H](CC(C)C)C(=O)N[C@@H](CC(=O)O)C(=O)N[C@H](C(=O)N1CCC[C@H]1C(=O)N[C@H](C(=O)N[C@@H](CCCCN)C(=O)N[C@@H](CC(C)C)C(=O)N[C@@H](CCCCNC(=O)COCCOCCNC(=O)COCCOCCNC(=O)CC[C@H](NC(=O)CCCCCCCCCCCCCCCCC(=O)O)C(=O)O)C(=O)N[C@@H](CCC(N)=O)C(=O)N[C@H](C(=O)N[C@@H](CC(C)C)C(=O)N[C@@H](CC(C)C)C(=O)N[C@@H](CCC(=O)O)C(=O)N[C@@H](CCC(N)=O)C(=O)N[C@@H](CCC(=O)O)C(=O)N[C@@H](CCCNC(=N)N)C(=O)N[C@@H](CCC(N)=O)C(=O)N[C@@H](CCCCN)C(=O)NC(C)(C)C(=O)N[C@@H](CCC(N)=O)C(=O)N[C@@H](CCCNC(=N)N)C(=O)N[C@@H](CCC(=O)O)C(=O)N[C@@H](CCC(N)=O)C(=O)N[C@@H](C)C(=O)N[C@@H](CCC(=O)O)C(=O)N[C@H](C(=O)N[C@@H](CC(N)=O)C(=O)N[C@@H](CCCCN)C(=O)N[C@@H](CCC(N)=O)C(=O)N[C@H](C(=O)N[C@@H](CC(C)C)C(=O)N[C@@H](CCC(=O)O)C(=O)N[C@@H](CCCNC(=N)N)C(=O)N[C@H](C(N)=O)C(C)C)[C@@H](C)CC)[C@@H](C)O)[C@@H](C)CC)[C@@H](C)CC)C(C)C)C(C)C) [SEQ ID NO: 106],0.53 nM,13.2 nM
IVLSLDVPIKLK([AEEA-AEEA-γGlu-C18 diacid])QILLKQERQK[Aib]QREQAETNKQILERV-NH2 (N-terminus assumed; SMILES CC[C@H](C)[C@H](N)C(=O)N[C@H](C(=O)N[C@@H](CC(C)C)C(=O)N[C@@H](CO)C(=O)N[C@@H](CC(C)C)C(=O)N[C@@H](CC(=O)O)C(=O)N[C@H](C(=O)N1CCC[C@H]1C(=O)N[C@H](C(=O)N[C@@H](CCCCN)C(=O)N[C@@H](CC(C)C)C(=O)N[C@@H](CCCCNC(=O)COCCOCCNC(=O)COCCOCCNC(=O)CC[C@H](NC(=O)CCCCCCCCCCCCCCCCC(=O)O)C(=O)O)C(=O)N[C@@H](CCC(N)=O)C(=O)N[C@H](C(=O)N[C@@H](CC(C)C)C(=O)N[C@@H](CC(C)C)C(=O)N[C@@H](CCCCN)C(=O)N[C@@H](CCC(N)=O)C(=O)N[C@@H](CCC(=O)O)C(=O)N[C@@H](CCCNC(=N)N)C(=O)N[C@@H](CCC(N)=O)C(=O)N[C@@H](CCCCN)C(=O)NC(C)(C)C(=O)N[C@@H](CCC(N)=O)C(=O)N[C@@H](CCCNC(=N)N)C(=O)N[C@@H](CCC(=O)O)C(=O)N[C@@H](CCC(N)=O)C(=O)N[C@@H](C)C(=O)N[C@@H](CCC(=O)O)C(=O)N[C@H](C(=O)N[C@@H](CC(N)=O)C(=O)N[C@@H](CCCCN)C(=O)N[C@@H](CCC(N)=O)C(=O)N[C@H](C(=O)N[C@@H](CC(C)C)C(=O)N[C@@H](CCC(=O)O)C(=O)N[C@@H](CCCNC(=N)N)C(=O)N[C@H](C(N)=O)C(C)C)[C@@H](C)CC)[C@@H](C)O)[C@@H](C)CC)[C@@H](C)CC)C(C)C)C(C)C) [SEQ ID NO: 107],0.81 nM,16.1 nM

# Further lines, results first:
"EC50 [nM], 0% HSA","EC50 [nM], 0.1% HSA",Binder
0.23 nM,–,IVLSLDVPIKLK([AEEA-AEEA-γGlu-C18 diacid])QILLKQERQK[Aib]QRQKAETNKQILAQV-NH2 (N-terminus assumed; SMILES CC[C@H](C)[C@H](N)C(=O)N[C@H](C(=O)N[C@@H](CC(C)C)C(=O)N[C@@H](CO)C(=O)N[C@@H](CC(C)C)C(=O)N[C@@H](CC(=O)O)C(=O)N[C@H](C(=O)N1CCC[C@H]1C(=O)N[C@H](C(=O)N[C@@H](CCCCN)C(=O)N[C@@H](CC(C)C)C(=O)N[C@@H](CCCCNC(=O)COCCOCCNC(=O)COCCOCCNC(=O)CC[C@H](NC(=O)CCCCCCCCCCCCCCCCC(=O)O)C(=O)O)C(=O)N[C@@H](CCC(N)=O)C(=O)N[C@H](C(=O)N[C@@H](CC(C)C)C(=O)N[C@@H](CC(C)C)C(=O)N[C@@H](CCCCN)C(=O)N[C@@H](CCC(N)=O)C(=O)N[C@@H](CCC(=O)O)C(=O)N[C@@H](CCCNC(=N)N)C(=O)N[C@@H](CCC(N)=O)C(=O)N[C@@H](CCCCN)C(=O)NC(C)(C)C(=O)N[C@@H](CCC(N)=O)C(=O)N[C@@H](CCCNC(=N)N)C(=O)N[C@@H](CCC(N)=O)C(=O)N[C@@H](CCCCN)C(=O)N[C@@H](C)C(=O)N[C@@H](CCC(=O)O)C(=O)N[C@H](C(=O)N[C@@H](CC(N)=O)C(=O)N[C@@H](CCCCN)C(=O)N[C@@H](CCC(N)=O)C(=O)N[C@H](C(=O)N[C@@H](CC(C)C)C(=O)N[C@@H](C)C(=O)N[C@@H](CCC(N)=O)C(=O)N[C@H](C(N)=O)C(C)C)[C@@H](C)CC)[C@@H](C)O)[C@@H](C)CC)[C@@H](C)CC)C(C)C)C(C)C) [SEQ ID NO: 108]
0.95 nM,–,IVLSLDVPIKLK([AEEA-AEEA-γGlu-C18 diacid])QILLKQERQK[Aib]QREKAETNKQILAQV-NH2 (N-terminus assumed; SMILES CC[C@H](C)[C@H](N)C(=O)N[C@H](C(=O)N[C@@H](CC(C)C)C(=O)N[C@@H](CO)C(=O)N[C@@H](CC(C)C)C(=O)N[C@@H](CC(=O)O)C(=O)N[C@H](C(=O)N1CCC[C@H]1C(=O)N[C@H](C(=O)N[C@@H](CCCCN)C(=O)N[C@@H](CC(C)C)C(=O)N[C@@H](CCCCNC(=O)COCCOCCNC(=O)COCCOCCNC(=O)CC[C@H](NC(=O)CCCCCCCCCCCCCCCCC(=O)O)C(=O)O)C(=O)N[C@@H](CCC(N)=O)C(=O)N[C@H](C(=O)N[C@@H](CC(C)C)C(=O)N[C@@H](CC(C)C)C(=O)N[C@@H](CCCCN)C(=O)N[C@@H](CCC(N)=O)C(=O)N[C@@H](CCC(=O)O)C(=O)N[C@@H](CCCNC(=N)N)C(=O)N[C@@H](CCC(N)=O)C(=O)N[C@@H](CCCCN)C(=O)NC(C)(C)C(=O)N[C@@H](CCC(N)=O)C(=O)N[C@@H](CCCNC(=N)N)C(=O)N[C@@H](CCC(=O)O)C(=O)N[C@@H](CCCCN)C(=O)N[C@@H](C)C(=O)N[C@@H](CCC(=O)O)C(=O)N[C@H](C(=O)N[C@@H](CC(N)=O)C(=O)N[C@@H](CCCCN)C(=O)N[C@@H](CCC(N)=O)C(=O)N[C@H](C(=O)N[C@@H](CC(C)C)C(=O)N[C@@H](C)C(=O)N[C@@H](CCC(N)=O)C(=O)N[C@H](C(N)=O)C(C)C)[C@@H](C)CC)[C@@H](C)O)[C@@H](C)CC)[C@@H](C)CC)C(C)C)C(C)C) [SEQ ID NO: 109]
